Source: patent publication US20210284730A1 (Janssen / Centocor, published 2021)

Legend:
human CD33 [1] = biological target: T1, human CD33 (human, UniProt P20138 18-364); test: FACS binding to MOLM-13 tumor cell line (CD33+)
T1 construct: whole, on cells; The target is CD33 on CD33+ tumor cell lines; also called CD33 on MOLM-13, Kasumi-1, OCI-AML-3 and Kasumi-3 cells

human CD33 [2] = biological target: T1, human CD33; test: FACS binding to Kasumi-1 tumor cell line (CD33+)
human CD33 [3] = biological target: T1, human CD33; test: FACS binding to OCI-AML-3 tumor cell line (CD33+)

T1 sequence (P20138 18-364): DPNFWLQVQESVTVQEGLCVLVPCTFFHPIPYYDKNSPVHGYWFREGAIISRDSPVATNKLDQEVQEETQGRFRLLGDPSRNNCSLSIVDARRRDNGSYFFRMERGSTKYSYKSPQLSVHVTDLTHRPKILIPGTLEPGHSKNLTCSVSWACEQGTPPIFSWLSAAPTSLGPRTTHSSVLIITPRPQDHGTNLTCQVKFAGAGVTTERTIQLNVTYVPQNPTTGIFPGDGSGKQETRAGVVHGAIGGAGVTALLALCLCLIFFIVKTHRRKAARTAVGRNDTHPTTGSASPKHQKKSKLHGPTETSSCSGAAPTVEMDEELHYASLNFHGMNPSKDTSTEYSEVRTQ

B1: anti-CD33 antibody (clone C33B904) (antibody, V domains shown)
VH: EVQLVESGGGLVQPGRSLRLSCAASGFTFDDYAMHWVRQAPGKGLEWVSGIGWSGGSIVYADSVKGRFTISRDNAKNSLYLQMNSLRAEDTALYYCAKDSPYGDFFDYWGQGTLVTVSS
VL: DIVMTQSPDSLAVSLGERATINCKSSQTVFYSSNNKNYLAWYQQKPGQPPKLLISWASTRKSGVPDRFSGSGSGTDFTLTVSSLQAEDVAVYYCQHYYSTPYTFGQGTKLEIK
notes: also called anti-CD33 clone C33B904; anti-CD33 mAb
EC50 (human CD33 [1]): 134 nM | EC50 (human CD33 [2]): 82.2 nM | EC50 (human CD33 [3]): 16.4 nM
